This is an account of results in the supplement of paper PMC10567573.

± gives the standard deviation.

The nature of the data set: protein stability index of a GFP-peptide fusion (GPS, HEK-293T) (PSI 1-6); higher = more stable. The conditions noted are these: c terminus: a fixed tail appended.
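Further: 24-mer peptide tiles fused after GFP, lentivirally expressed, FACS-sorted into six equal bins by GFP/DsRed ratio, decoded by Illumina sequencing, PSI is the read-weighted mean bin number.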

As to VLMWTMLFLGQGIQVSLYCQEWYA [SOAT2], the protein stability index turned out to be 2.87 ± 0.36 (treatment: DMSO) and 3.3 ± 0.6 (treatment: MLN4924 1 uM, 8 h).

In the case of AVVAAGGGSSGQVTSNGSIGRDPP [CLPTM1], the protein stability index reads like this: (treatment: DMSO) 4.75 ± 0.13; (treatment: MLN4924 1 uM, 8 h) 4.88 ± 0.26.

As for LSRLSLMAMPNGFHEDGPQGPGGD [PSD2], the protein stability index runs as follows: (treatment: DMSO) 4.89 ± 0.15; (treatment: MLN4924 1 uM, 8 h) 4.62 ± 0.13.

Consider IERGASLEEVNDEGYTPLMEAARE [ANKRD17], for which the protein stability index amounted to 5.34 ± 0.23 (treatment: DMSO) and 5.06 ± 0.21 (treatment: MLN4924 1 uM, 8 h).

As to LPTTKMAQTNPTPGSLGPWKITIY [CRYBA1], the protein stability index by setting is: (treatment: DMSO) 2.71 ± 0.48; (treatment: MLN4924 1 uM, 8 h) 2.19 ± 0.49.

Take NMDPAGLDDEDDTSIGMPSLMYRS [RETREG3]: the protein stability index is 4.87 ± 0.15 (treatment: DMSO) and 4.91 ± 0.1 (treatment: MLN4924 1 uM, 8 h).

In the case of RNRLAATKCRKRKLERIARLEDKV [JUNB], the protein stability index runs as follows: (treatment: DMSO) 3.78 ± 0.17; (treatment: MLN4924 1 uM, 8 h) 3.86 ± 0.12.

Regarding EYLLSFPAGKTPVPAGEEEGELGE [VPS39], the protein stability index (treatment: DMSO) is 5.25 ± 0.43 and the protein stability index (treatment: MLN4924 1 uM, 8 h) was found to be 5.31 ± 0.071.

Take TSSVSCALDEAAAALTRMRAESTA [ANKRD17]: the protein stability index worked out at 3.06 ± 0.42 (treatment: DMSO) and 3.05 ± 0.32 (treatment: MLN4924 1 uM, 8 h).

Regarding PKLREETAHMLGVRELRIAFREFD [CABP4], the protein stability index by setting is: (treatment: DMSO) 2.92 ± 0.29; (treatment: MLN4924 1 uM, 8 h) 3.17 ± 0.29.

SGSLITAGRIDREELCAQSARCVV [PCDHGA10]: the protein stability index is, setting by setting: (treatment: DMSO) 3.22 ± 0.4; (treatment: MLN4924 1 uM, 8 h) 3.2 ± 0.29.

On to IYGHVTLMRAQRNYMVQTEDQYIF [PTPRD], for which the protein stability index reads like this: (treatment: DMSO) 2.61 ± 0.58; (treatment: MLN4924 1 uM, 8 h) 2.87 ± 1.1.

Turning to NATLTQYQLLATHVPTVWAIDQYR [RHOBTB2], the protein stability index reads like this: (treatment: DMSO) 2.61 ± 0.58; (treatment: MLN4924 1 uM, 8 h) 2.48 ± 0.31.

For DFKEDLKKFRTKSRTWAGEKSKRE [CDC25A], the protein stability index worked out at 4.88 ± 0.52 (treatment: DMSO) and 4.92 ± 0.15 (treatment: MLN4924 1 uM, 8 h).

For QSFCGENIMMPMGGMMPPGPGIPP [ZNF207], the protein stability index is 3.15 ± 0.31 (treatment: DMSO) and 3.27 ± 0.26 (treatment: MLN4924 1 uM, 8 h).

For QKASLLIQQALTMFPGVLLPLLES [TCF25], the protein stability index runs as follows: (treatment: DMSO) 3.23 ± 0.48; (treatment: MLN4924 1 uM, 8 h) 3.51 ± 0.29.

For the sequence VVLLQGAELLLAARLLGALAARSG [TSPAN10], the protein stability index was found to be 3.52 ± 0.57 (treatment: DMSO) and 2.76 ± 0.59 (treatment: MLN4924 1 uM, 8 h).

For the sequence VSDRLAPGAPRGNPPKASAAPDCT [MYCL], the protein stability index by setting is: (treatment: DMSO) 4.94 ± 0.22; (treatment: MLN4924 1 uM, 8 h) 4.95 ± 0.19.

In the case of TYEEAAAYIQCQFEDLNKRKDTKE [GNAI1], the protein stability index is, setting by setting: (treatment: DMSO) 4.61 ± 0.15; (treatment: MLN4924 1 uM, 8 h) 4.67 ± 0.12.

As for ILINNGSRIKGWWVFHHYVSTFLS [TMEM120A], the protein stability index reads like this: (treatment: DMSO) 2.17 ± 0.64; (treatment: MLN4924 1 uM, 8 h) 2.38 ± 0.42.

Consider FQILKYLFQIDVYDFMNSAFSPIV [MIA2], for which the protein stability index runs as follows: (treatment: DMSO) 2.75 ± 0.038; (treatment: MLN4924 1 uM, 8 h) 2.85 ± 1.

For MAGRLMIRKLVAEKLNIPWNHIRL [AASDHPPT], the protein stability index reads like this: (treatment: DMSO) 2.4 ± 0.94; (treatment: MLN4924 1 uM, 8 h) 2.12 ± 0.34.

As for FLIGAYAVIYLKKTPEEAYRALLS [CDC14A], the protein stability index by setting is: (treatment: DMSO) 2.71 ± 0.8; (treatment: MLN4924 1 uM, 8 h) 2.7 ± 0.6.

Take INQVLLFLLIVTLCVILYKKVHKG [GLT8D2]: the protein stability index runs as follows: (treatment: DMSO) 3.12 ± 0.29; (treatment: MLN4924 1 uM, 8 h) 3.04 ± 0.9.

KRLREEEAARLFKQIVSAVAHCHQ [TRIB1] had a protein stability index (treatment: DMSO) of 2.4 ± 0.36 and a protein stability index (treatment: MLN4924 1 uM, 8 h) of 2.4 ± 2.

On to NCVLSSSPNPFPEISRGEYLYTYD [ZNF8], for which the protein stability index by setting is: (treatment: DMSO) 2.76 ± 0.42; (treatment: MLN4924 1 uM, 8 h) 3.01 ± 0.3.

Consider TCTWKLPTLAKFSPYLGQMINLRR [PRAME], for which the protein stability index runs as follows: (treatment: DMSO) 2.28 ± 0.27; (treatment: MLN4924 1 uM, 8 h) 1.89 ± 0.3.

Take GPSEPGGTHPEDHQGHSDQHHHHH [RHOBTB2]: the protein stability index runs as follows: (treatment: DMSO) 5.65 ± 0.073; (treatment: MLN4924 1 uM, 8 h) 5.32 ± 0.24.

With STHHGCEHICVNNGNSYICKCSEG [MATN2], the protein stability index turned out to be 5.16 ± 0.27 (treatment: DMSO) and 4.94 ± 0.23 (treatment: MLN4924 1 uM, 8 h).

For the sequence LQNFSSSWSDGMAFCALVHSFFPD [SMTNL2], the protein stability index runs as follows: (treatment: DMSO) 2.6 ± 0.39; (treatment: MLN4924 1 uM, 8 h) 2.42 ± 0.44.

Sequence RAQLPKYQRNLPRPGQAPIGNPPV [ZNF207] came in with a protein stability index (treatment: DMSO) of 3.75 ± 0.26 and a protein stability index (treatment: MLN4924 1 uM, 8 h) of 3.79 ± 0.14.

Consider RRLEAFEHPNVVRLMDVCATSRTD [CDK4], for which the protein stability index (treatment: DMSO) stood at 3.9 ± 0.13 and the protein stability index (treatment: MLN4924 1 uM, 8 h) came to 3.91 ± 0.27.

On to GNEEEESKIFTTLDPASLAWLTEE [DDIT3], for which the protein stability index is, setting by setting: (treatment: DMSO) 5.06 ± 0.2; (treatment: MLN4924 1 uM, 8 h) 5.09 ± 0.14.

In turn, KSQSLRSVRRSESWARPRPDEERP [RASAL3] showed a protein stability index (treatment: DMSO) of 4.89 ± 0.36 and a protein stability index (treatment: MLN4924 1 uM, 8 h) of 4.99 ± 0.12.

For LVKKVEEDEAGGRFVAFSGEGQSL [UFD1], the protein stability index (treatment: DMSO) amounted to 4.71 ± 0.14 and the protein stability index (treatment: MLN4924 1 uM, 8 h) worked out at 4.81 ± 0.18.

As for YSPEALASIQNHVRKREAPAPEAE [EFHC1], the protein stability index by setting is: (treatment: DMSO) 4.92 ± 0.19; (treatment: MLN4924 1 uM, 8 h) 5.06 ± 0.2.
